Consider three molecules from PMC3087838 (Nature structural & molecular biology, 2011).

The chains are these.
B3: Full length WT His-hVDR (human vitamin D receptor) (receptor, UniProt P11473 1-427, looked up)
chain: MEAMAASTSLPDPGDFDRNVPRICGVCGDRATGFHFNAMTCEGCKGFFRRSMKRKALFTCPFNGDCRITKDNRRHCQACRLKRCVDIGMMKEFILTDEEVQRKREMILKRKEEEALKDSLRPKLSEEQQRIIAILLDAHHKTYDPTYSDFCQFRPPVRVNDGGGSHPSRPNSRHTPSFSGDSSSSCSDHCITSSDMMDSSSFSNLDLSEEDSDDPSVTLELSQLSMLPHLADLVSYSIQKVIGFAKMIPGFRDLTSEDQIVLLKSSAIEVIMLRSNESFTMDDMSWTCGNQDYKYRVSDVTKAGHSLELIEPLIKFQVGLKKLNLHEEEHVLLMAICIVSPDRPGVQDAALIEAIQDRLSNTLQTYIRCRHPPPGSHLLYAKMIQKLADLRSLNEEHSKQYRCLSFQPECSMKLTPLVLEVFGNEIS

Where two headings read alike, the source gives them in different places.

Experiment in all cases: HDX-MS
For assay [1], the target named is T1, Full length WT Flag-hRXRα (human retinoid X receptor alpha) (human, UniProt P19793 1-462).
T1 sequence (looked up): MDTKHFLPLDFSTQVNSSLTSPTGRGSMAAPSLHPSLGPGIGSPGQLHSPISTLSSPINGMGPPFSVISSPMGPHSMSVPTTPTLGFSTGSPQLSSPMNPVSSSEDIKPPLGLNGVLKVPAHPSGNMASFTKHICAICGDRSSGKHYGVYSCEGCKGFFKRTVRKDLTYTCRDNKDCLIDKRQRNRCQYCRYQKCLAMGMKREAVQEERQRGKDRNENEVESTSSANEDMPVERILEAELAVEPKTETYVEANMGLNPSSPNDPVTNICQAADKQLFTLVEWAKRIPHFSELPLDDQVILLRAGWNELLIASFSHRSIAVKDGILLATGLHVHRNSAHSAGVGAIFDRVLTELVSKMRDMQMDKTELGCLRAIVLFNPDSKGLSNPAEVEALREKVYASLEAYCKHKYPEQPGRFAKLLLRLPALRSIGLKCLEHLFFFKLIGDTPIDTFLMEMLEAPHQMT

The target of assay [2] is B3.
In assay [3] the target is T2, RXRα-VDR heterodimer complex (full length His-hVDR with full length Flag-hRXRα) (human, UniProt P11473 1-427; P19793 1-462).
T2 sequence (looked up) 1: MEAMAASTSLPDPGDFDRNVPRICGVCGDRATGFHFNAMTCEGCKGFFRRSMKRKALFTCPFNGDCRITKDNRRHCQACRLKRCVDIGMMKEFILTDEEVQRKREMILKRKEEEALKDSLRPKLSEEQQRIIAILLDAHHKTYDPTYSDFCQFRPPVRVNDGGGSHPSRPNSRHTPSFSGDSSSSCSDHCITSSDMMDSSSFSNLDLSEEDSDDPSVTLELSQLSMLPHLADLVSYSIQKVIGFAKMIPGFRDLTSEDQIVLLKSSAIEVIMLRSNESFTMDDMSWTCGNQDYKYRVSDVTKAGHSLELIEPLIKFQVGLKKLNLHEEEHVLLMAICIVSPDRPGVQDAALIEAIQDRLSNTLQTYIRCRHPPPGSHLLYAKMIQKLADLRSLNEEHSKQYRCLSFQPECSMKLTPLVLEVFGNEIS
T2 sequence (looked up) 2: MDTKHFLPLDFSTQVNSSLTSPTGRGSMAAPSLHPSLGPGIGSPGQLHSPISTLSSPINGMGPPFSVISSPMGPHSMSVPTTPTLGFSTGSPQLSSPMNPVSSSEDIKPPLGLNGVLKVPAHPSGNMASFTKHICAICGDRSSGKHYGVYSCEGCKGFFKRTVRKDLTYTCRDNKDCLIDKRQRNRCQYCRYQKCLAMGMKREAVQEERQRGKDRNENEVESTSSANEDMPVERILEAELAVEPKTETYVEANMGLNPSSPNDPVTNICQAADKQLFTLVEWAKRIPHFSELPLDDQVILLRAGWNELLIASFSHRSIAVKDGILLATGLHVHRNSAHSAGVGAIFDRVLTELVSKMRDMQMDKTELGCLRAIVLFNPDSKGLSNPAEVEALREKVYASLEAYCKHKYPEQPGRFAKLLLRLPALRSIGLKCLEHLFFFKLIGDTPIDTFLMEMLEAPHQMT

The target in assay [4] is T1, Full length WT Flag-hRXRα (human …). The source holds these as a separate data set.

B1: His-hVDR LBD (residues 118-425, Δ[165-215]) (domain or fragment, human, UniProt P11473 118-425, looked up)
chain: DSLRPKLSEEQQRIIAILLDAHHKTYDPTYSDFCQFRPPVRVNDGGGSVTLELSQLSMLPHLADLVSYSIQKVIGFAKMIPGFRDLTSEDQIVLLKSSAIEVIMLRSNESFTMDDMSWTCGNQDYKYRVSDVTKAGHSLELIEPLIKFQVGLKKLNLHEEEHVLLMAICIVSPDRPGVQDAALIEAIQDRLSNTLQTYIRCRHPPPGSHLLYAKMIQKLADLRSLNEEHSKQYRCLSFQPECSMKLTPLVLEVFGNE
For B1, the binding result in assay [1] is on record as “binds”.

B2: His-hSRC1-RID (627-786) variant 1, receptor interacting domain of human steroid receptor coactivator 1 (domain or fragment, UniProt Q15788-1 627-786, looked up)
chain: SQTSHKLVQLLTTTAEQQLRHADIDTSCKDVLSCTGTSNSASANSSGGSCPSSHSSLTERHKILHRLLQEGSPSDITTLSVEPDKKDSASTSVSVTGQVQGNSSIKLELDASKKKESKDHQLLRYLLDKDEKDLRSTPNLSLDDVKVKVEKKEQMDPCNT
B2: the binding result in assay [2], in assay [3] and in assay [4] was “binds” throughout. For B3, the binding result in assay [1] is “binds”.
